# Numbering of substitutions follows the chain as printed.
# T1: human GIP receptor (human, UniProt P48546 22-466)
# T1 construct: whole, on cells; also called hGIPR; human glucose-dependent insulinotropic polypeptide receptor
# T1 sequence (looked up): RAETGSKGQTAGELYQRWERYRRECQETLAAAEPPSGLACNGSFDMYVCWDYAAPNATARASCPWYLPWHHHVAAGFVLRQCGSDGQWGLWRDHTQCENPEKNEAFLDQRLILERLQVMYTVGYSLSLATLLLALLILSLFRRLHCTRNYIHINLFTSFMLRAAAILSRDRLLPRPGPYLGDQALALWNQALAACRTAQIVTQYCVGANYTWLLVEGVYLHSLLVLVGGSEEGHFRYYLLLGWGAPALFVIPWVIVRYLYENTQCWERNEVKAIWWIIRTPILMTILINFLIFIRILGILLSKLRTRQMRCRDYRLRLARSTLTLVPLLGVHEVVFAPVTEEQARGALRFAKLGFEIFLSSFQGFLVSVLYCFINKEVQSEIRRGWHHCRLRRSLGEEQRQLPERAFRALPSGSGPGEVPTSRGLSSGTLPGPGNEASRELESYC
# B1: Y-Aib-EGT-αMeF(2F)-TSD-4Pal-SI-αMeL-LD-Orn-K((2-[2-(2-Amino-ethoxy)-ethoxy]-acetyl)2-(εK)-CO-(CH2)12-CO2H)AQ-Aib-EFI-(D-Glu)-αMeY-LIEGGK((2-[2-(2-Amino-ethoxy)- … (peptide)
# peptide: YXEGTXTSDXSIXLDXKAQXEFIXXLIEGGKSSGAPPPS
# modifications: Aib2, αMeF(2F)6, 4Pal10, αMeL13, Orn16, K17(Z1), Aib20, D-Glu24, αMeY25, K31(Z1), C-term NH2; Z1=AEEA2-(εK)-CO-(CH2)12-CO2H
# B2: Y-Aib-EGT-αMeF(2F)-TSD-1Nal-SI-αMeL-LD-Orn-K((2-[2-(2-Amino-ethoxy)-ethoxy]-acetyl)2-(γ-Glu)-CO-(CH2)12-CO2H)AQ-Aib-EFI-(D-Glu)-αMeY-LIEGGK((2-[2-(2-Amino-ethox … (peptide)
# peptide: B1 peptide
# modifications: Aib2, αMeF(2F)6, 1Nal10, αMeL13, Orn16, K17(Z1), Aib20, D-Glu24, αMeY25, K31(Z1), C-term NH2; Z1=AEEA2-(γ-Glu)-CO-(CH2)12-CO2H
# B3: Y-Aib-EGT-αMeF(2F)-TSD-4Pal-SI-αMeL-LD-Orn-K((εK)-(εK)-(γ-Glu)-CO-(CH2)12-CO2H)AQ-Aib-EFI-(D-Glu)-αMeY-LIEGGK((εK)-(εK)-(γ-Glu)-CO-(CH2)12-CO2H)SSGAPPPS-NH2 (peptide)
# peptide: B1 peptide
# modifications: Aib2, αMeF(2F)6, 4Pal10, αMeL13, Orn16, K17(Z1), Aib20, D-Glu24, αMeY25, K31(Z1), C-term NH2; Z1=(εK)-(εK)-(γ-Glu)-CO-(CH2)12-CO2H
# B4: Y-Aib-EGT-αMeF-TSD-4Pal-SI-αMeL-LD-Orn-K((2-[2-(2-Amino-ethoxy)-ethoxy]-acetyl)2-(γ-Glu)-CO-(CH2)12-CO2H)AQ-Aib-E-αMeF-I-(D-Glu)-αMeY-LIEGGK((2-[2-(2-Amino-etho … (peptide)
# peptide: B1 peptide with F22X
# modifications: Aib2, αMeF6, 4Pal10, αMeL13, Orn16, K17(Z1), Aib20, αMeF22, D-Glu24, αMeY25, K31(Z1), C-term NH2; Z1=AEEA2-(γ-Glu)-CO-(CH2)12-CO2H
# B5: Y-Aib-EGT-αMeF(2F)-TSD-4Pal-SI-αMeL-LD-Orn-K((2-[2-(2-Amino-ethoxy)-ethoxy]-acetyl)2-(γ-Glu)-CO-(CH2)12-CO2H)AQ-Aib-E-1Nal-I-(D-Glu)-αMeY-LIEGGK((2-[2-(2-Amino- … (peptide)
# peptide: B1 peptide with F22X
# modifications: Aib2, αMeF(2F)6, 4Pal10, αMeL13, Orn16, K17(Z1), Aib20, 1Nal22, D-Glu24, αMeY25, K31(Z1), C-term NH2; Z1=AEEA2-(γ-Glu)-CO-(CH2)12-CO2H
# B6: Y-Aib-EGT-αMeF(2F)-TSD-4Pal-SI-αMeL-LD-Orn-K((εK)-(γ-Glu)-CO-(CH2)12-CO2H)AQ-Aib-EFI-(D-Glu)-αMeY-LIEGGK((εK)-(γ-Glu)-CO-(CH2)12-CO2H)SSGAPPPS-NH2 (peptide)
# peptide: B1 peptide
# modifications: Aib2, αMeF(2F)6, 4Pal10, αMeL13, Orn16, K17(Z1), Aib20, D-Glu24, αMeY25, K31(Z1), C-term NH2; Z1=(εK)-(γ-Glu)-CO-(CH2)12-CO2H
# B7: Y-Aib-EGT-αMeF(2F)-TSD-Nle-SI-αMeL-LD-Orn-K((2-[2-(2-Amino-ethoxy)-ethoxy]-acetyl)2-(γ-Glu)-CO-(CH2)12-CO2H)AQ-Aib-EFI-(D-Glu)-αMeY-LIEGGK((2-[2-(2-Amino-ethoxy … (peptide)
# peptide: B1 peptide
# modifications: Aib2, αMeF(2F)6, Nle10, αMeL13, Orn16, K17(Z1), Aib20, D-Glu24, αMeY25, K31(Z1), C-term NH2; Z1=AEEA2-(γ-Glu)-CO-(CH2)12-CO2H
# B8: Y-Aib-EGT-αMeF(2F)-TSD-hTyr-SI-αMeL-LD-Orn-K((2-[2-(2-Amino-ethoxy)-ethoxy]-acetyl)2-(γ-Glu)-CO-(CH2)12-CO2H)AQ-Aib-EFI-(D-Glu)-αMeY-LIEGGK((2-[2-(2-Amino-ethox … (peptide)
# peptide: B1 peptide
# modifications: Aib2, αMeF(2F)6, hTyr10, αMeL13, Orn16, K17(Z1), Aib20, D-Glu24, αMeY25, K31(Z1), C-term NH2; Z1=AEEA2-(γ-Glu)-CO-(CH2)12-CO2H
# B9: Y-Aib-EGT-αMeF(2F)-TSD-OMeY-SI-αMeL-LD-Orn-K((2-[2-(2-Amino-ethoxy)-ethoxy]-acetyl)2-(γ-Glu)-CO-(CH2)12-CO2H)AQ-Aib-EFI-(D-Glu)-αMeY-LIEGGK((2-[2-(2-Amino-ethox … (peptide)
# peptide: B1 peptide
# modifications: Aib2, αMeF(2F)6, OMeY10, αMeL13, Orn16, K17(Z1), Aib20, D-Glu24, αMeY25, K31(Z1), C-term NH2; Z1=AEEA2-(γ-Glu)-CO-(CH2)12-CO2H
# B10: Y-Aib-EGT-αMeF(2F)-TSD-4Pal-SI-αMeL-LD-Orn-K((εK)-(γ-Glu)-(γ-Glu)-CO-(CH2)12-CO2H)AQ-Aib-EFI-(D-Glu)-αMeY-LIEGGK((εK)-(γ-Glu)-(γ-Glu)-CO-(CH2)12-CO2H)SSGAPPPS-N … (peptide)
# peptide: B1 peptide
# modifications: Aib2, αMeF(2F)6, 4Pal10, αMeL13, Orn16, K17(Z1), Aib20, D-Glu24, αMeY25, K31(Z1), C-term NH2; Z1=(εK)-(γ-Glu)-(γ-Glu)-CO-(CH2)12-CO2H
# B11: Y-Aib-EGT-αMeF(2F)-TSD-2Nal-SI-αMeL-LD-Orn-K((2-[2-(2-Amino-ethoxy)-ethoxy]-acetyl)2-(γ-Glu)-CO-(CH2)12-CO2H)AQ-Aib-EFI-(D-Glu)-αMeY-LIEGGK((2-[2-(2-Amino-ethox … (peptide)
# peptide: B1 peptide
# modifications: Aib2, αMeF(2F)6, 2Nal10, αMeL13, Orn16, K17(Z1), Aib20, D-Glu24, αMeY25, K31(Z1), C-term NH2; Z1=AEEA2-(γ-Glu)-CO-(CH2)12-CO2H
# B12: Y-Aib-EGT-αMeF(2F)-TSD-4Pal-SI-αMeL-LD-Orn-K((γ-Glu)-(2-[2-(2-Amino-ethoxy)-ethoxy]-acetyl)-CO-(CH2)12-CO2H)AQ-Aib-EFI-(D-Glu)-αMeY-LIEGGK((γ-Glu)-(2-[2-(2-Amin … (peptide)
# peptide: B1 peptide
# modifications: Aib2, αMeF(2F)6, 4Pal10, αMeL13, Orn16, K17(Z1), Aib20, D-Glu24, αMeY25, K31(Z1), C-term NH2; Z1=(γ-Glu)-AEEA-CO-(CH2)12-CO2H
# B13: Y-Aib-EGT-αMeF(2F)-TSD-Bip-SI-αMeL-LD-Orn-K((2-[2-(2-Amino-ethoxy)-ethoxy]-acetyl)2-(γ-Glu)-CO-(CH2)12-CO2H)AQ-Aib-EFI-(D-Glu)-αMeY-LIEGGK((2-[2-(2-Amino-ethoxy … (peptide)
# peptide: B1 peptide
# modifications: Aib2, αMeF(2F)6, Bip10, αMeL13, Orn16, K17(Z1), Aib20, D-Glu24, αMeY25, K31(Z1), C-term NH2; Z1=AEEA2-(γ-Glu)-CO-(CH2)12-CO2H
# B14: Y-Aib-EGT-αMeF(2F)-TSDY-Aib-I-αMeL-LD-Orn-K((2-[2-(2-Amino-ethoxy)-ethoxy]-acetyl)2-(γ-Glu)-CO-(CH2)12-CO2H)AQ-Aib-EFI-(D-Glu)-αMeY-LIEGGK((2-[2-(2-Amino-ethoxy … (peptide)
# peptide: B1 peptide with X10Y, S11X
# modifications: Aib2, αMeF(2F)6, Aib11, αMeL13, Orn16, K17(Z1), Aib20, D-Glu24, αMeY25, K31(Z1), C-term NH2; Z1=AEEA2-(γ-Glu)-CO-(CH2)12-CO2H
# B15: Y-Aib-EGT-αMeF(2F)-TSDY-aMeS-I-αMeL-LD-Orn-K((2-[2-(2-Amino-ethoxy)-ethoxy]-acetyl)2-(γ-Glu)-CO-(CH2)12-CO2H)AQ-Aib-EFI-(D-Glu)-αMeY-LIEGGK((2-[2-(2-Amino-ethox … (peptide)
# peptide: B1 peptide with X10Y, S11X
# modifications: Aib2, αMeF(2F)6, αMeS11, αMeL13, Orn16, K17(Z1), Aib20, D-Glu24, αMeY25, K31(Z1), C-term NH2; Z1=AEEA2-(γ-Glu)-CO-(CH2)12-CO2H
# B16: Y-Aib-EGT-αMeF(2F)-TSD-4Pal-SI-αMeL-LD-Orn-K((2-[2-(2-Amino-ethoxy)-ethoxy]-acetyl)2-(γ-Glu)-(4-(4-iodophenyl)butanoyl))AQ-Aib-EFI-(D-Glu)-αMeY-LIEGGK((2-[2-(2- … (peptide)
# peptide: B1 peptide
# modifications: Aib2, αMeF(2F)6, 4Pal10, αMeL13, Orn16, K17(Z1), Aib20, D-Glu24, αMeY25, K31(Z1), C-term NH2; Z1=AEEA2-(γ-Glu)-(4-(4-iodophenyl)butanoyl)
# B17: Y-Aib-EGT-αMeF(2F)-TSD-4Pal-SI-αMeL-LD-Orn-K((2-[2-(2-Amino-ethoxy)-ethoxy]-acetyl)2-(γ-Glu)-CO-(CH2)12-CO2H)AQ-Aib-E-3,5FPhe-I-(D-Glu)-αMeY-LIEGGK((2-[2-(2-Ami … (peptide)
# peptide: B1 peptide with F22X
# modifications: Aib2, αMeF(2F)6, 4Pal10, αMeL13, Orn16, K17(Z1), Aib20, 3,5FPhe22, D-Glu24, αMeY25, K31(Z1), C-term NH2; Z1=AEEA2-(γ-Glu)-CO-(CH2)12-CO2H
# Target: T1, human GIP receptor
# Assay: SPA competition vs [125I]-GIP, hGIPR membranes
row,Binder,Ki [nM]
1,B1,0.117
2,B2,0.152
3,B3,0.163
4,B4,0.0761
5,B5,0.263
6,B6,0.0608
7,B7,0.11
8,B8,0.171
9,B9,0.208
10,B10,0.234
11,B11,0.297
12,B12,0.0759
13,B13,0.252
14,B14,0.0296
15,B15,0.0573
16,B16,0.0629
17,B17,0.121

# Target: T2, human GLP-1 receptor (human, UniProt P43220 24-463)
# T2 construct: whole, on cells; also called hGLP-1R; human glucagon-like peptide-1 receptor
# Assay: SPA competition vs [125I]-GLP-1, hGLP-1R membranes
# Protocol: The binding buffer contains 25 mM HEPES, pH 7.4, 2.5 mM CaCl₂, 1 mM MgCl₂, 0.1% (w/v) bacitracin, 0.003% (w/v) TWEEN®-20, and Roche Complete™ Protease Inhibitors without EDTA.
# Data are analyzed using four-parameter (curve maximum, curve minimum, IC₅₀, Hill slope) nonlinear regression routines (Genedata Screener, version 12.0.4, Genedata AG, Basal, Switzerland). […] Values for Kᵢ are reported as the geometric mean, with error expressed as the standard error of the mean (SEM) and n is equal to the number of independent replicates (determined in assays performed on different days). Geometric Means are calculated as follows: […]
row,Binder,Ki [nM]
1,B1,1.34
2,B2,2.85
3,B3,1.6
4,B4,29
5,B5,1.55
6,B6,0.803
7,B7,0.872
8,B8,0.789
9,B9,1.15
10,B10,1.69
11,B11,4.35
12,B12,2.02
13,B13,5.17
14,B14,0.876
15,B15,1.21
16,B16,0.471
17,B17,1.05

# Target: T3, human glucagon receptor (human, UniProt P47871 26-477)
# T3 construct: whole, on cells; also called hGCGR; hGcgR
# T3 sequence (P47871 26-477): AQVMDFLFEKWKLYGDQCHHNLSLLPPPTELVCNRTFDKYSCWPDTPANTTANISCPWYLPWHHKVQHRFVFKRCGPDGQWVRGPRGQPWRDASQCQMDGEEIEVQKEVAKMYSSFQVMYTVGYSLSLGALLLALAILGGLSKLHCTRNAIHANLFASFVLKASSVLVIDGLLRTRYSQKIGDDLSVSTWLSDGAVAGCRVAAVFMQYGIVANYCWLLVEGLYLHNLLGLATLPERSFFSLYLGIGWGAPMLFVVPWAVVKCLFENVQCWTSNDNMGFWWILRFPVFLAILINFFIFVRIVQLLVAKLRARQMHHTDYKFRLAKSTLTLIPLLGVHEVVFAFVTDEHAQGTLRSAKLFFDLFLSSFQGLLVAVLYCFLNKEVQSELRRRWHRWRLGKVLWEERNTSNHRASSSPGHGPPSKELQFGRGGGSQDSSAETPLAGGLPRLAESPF
# Assay: SPA competition vs [125I]-Gcg, hGcgR membranes
# Protocol: The binding buffer contains 25 mM 4-(2-hydroxyethyl)-1-piperazineethanesulfonic acid (HEPES), pH 7.4, 2.5 mM CaCl₂, 1 mM MgCh, 0.1% (w/v) bacitracin (Research Products), 0.003% (w/v) Polyoxyethylenesorbitan monolaurate (TWEEN®-20), and Roche Complete™ Protease Inhibitors without EDTA. […] Plates are sealed and mixed on a plate shaker (setting 6) for 1 minute and read with a PerkinElmer Trilux MicroBeta® scintillation counter after 12 hours of incubation/settling time at room temperature.
# Data are analyzed using four-parameter (curve maximum, curve minimum, IC₅₀, Hill slope) nonlinear regression routines (Genedata Screener, version 12.0.4, Genedata AG, Basal, Switzerland). […] Values for Kᵢ are reported as the geometric mean, with error expressed as the standard error of the mean (SEM) and n is equal to the number of independent replicates (determined in assays performed on different days).
row,Binder,Ki [nM]
1,B1,264
2,B2,137
3,B3,223
4,B4,217
5,B5,4150
6,B6,174
7,B7,737
8,B8,2000
9,B9,1920
10,B10,412
11,B11,114
12,B12,458
13,B13,299
14,B14,42
15,B15,196
16,B16,711
17,B17,4290

# From US20230265151A1, “GIP/GLP1 CO-AGONIST COMPOUNDS” (priority 2020, published 2023)
